Assay results from PMC7353165 (Molecular Biology of the Cell, 2020).

Target: T1, WT-EphB1-YFP (mouse EphB1 C-terminal YFP-tagged) (mouse, UniProt Q8CBF3 18-984)
T1 sequence (looked up): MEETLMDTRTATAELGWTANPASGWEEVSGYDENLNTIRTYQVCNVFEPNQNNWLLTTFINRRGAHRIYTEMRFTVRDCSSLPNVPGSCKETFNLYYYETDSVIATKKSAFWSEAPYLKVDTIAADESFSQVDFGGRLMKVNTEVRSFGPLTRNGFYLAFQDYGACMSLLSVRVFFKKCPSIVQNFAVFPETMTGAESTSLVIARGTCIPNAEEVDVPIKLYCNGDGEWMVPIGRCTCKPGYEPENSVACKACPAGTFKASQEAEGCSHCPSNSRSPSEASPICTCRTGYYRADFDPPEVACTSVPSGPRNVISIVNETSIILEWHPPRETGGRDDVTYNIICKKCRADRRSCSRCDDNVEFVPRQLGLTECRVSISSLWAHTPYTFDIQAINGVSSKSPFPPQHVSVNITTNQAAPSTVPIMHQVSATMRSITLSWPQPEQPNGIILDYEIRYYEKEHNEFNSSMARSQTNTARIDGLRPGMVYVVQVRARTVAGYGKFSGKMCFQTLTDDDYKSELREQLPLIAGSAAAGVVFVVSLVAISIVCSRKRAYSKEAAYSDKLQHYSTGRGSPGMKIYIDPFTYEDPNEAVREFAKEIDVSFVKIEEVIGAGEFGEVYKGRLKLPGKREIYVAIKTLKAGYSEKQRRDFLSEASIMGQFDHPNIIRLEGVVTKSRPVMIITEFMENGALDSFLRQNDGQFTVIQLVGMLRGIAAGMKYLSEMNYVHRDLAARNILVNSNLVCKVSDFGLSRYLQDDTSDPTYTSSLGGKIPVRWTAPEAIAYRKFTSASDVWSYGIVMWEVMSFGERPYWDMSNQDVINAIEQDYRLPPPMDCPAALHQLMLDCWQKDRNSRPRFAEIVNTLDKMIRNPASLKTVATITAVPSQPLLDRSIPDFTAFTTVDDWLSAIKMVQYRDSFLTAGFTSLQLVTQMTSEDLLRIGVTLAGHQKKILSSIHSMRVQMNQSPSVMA
Experiment: FRET or BRET

fold FRET intensity against EphB1^∆808-815-YFP with WT-Cav-1-CFP: 4 fold
B1: WT-Cav-1-CFP (C-terminal CFP-tagged Cav-1) (natural protein, UniProt Q03135 1-178, looked up)
chain: MSGGKYVDSEGHLYTVPIREQGNIYKPNNKAMADELSEKQVYDAHTKEIDLVNRDPKHLNDDVVKIDFEDVIAEPEGTHSFDGIWKASFTTFTVTKYWFYRLLSALFGIPMALIWGIYFAILSFLHIWAVVPCIKSFLIEIQCISRVYSIYVHTVCDPLFEAVGKIFSNVRINLQKEI
